Values quoted from earlier work in article PMC9163320.

Molecular target: Asp303 (UniProt position 303, VILFMDRNLEQ)
Assay: NMR
Conditions: folded Hint domain; no ligand stated

Substance | pKa
Hedgehog protein, Hint domain of HhC, C258A mutant (Drosophila melanogaster; C258A) | 4.2
Hedgehog protein, Hint domain of the C-terminal autoprocessing domain (HhC) (Drosophila melanogaster) | 5.6
